{"source": "patent US6344436", "biological_target": "LDL receptor (UniProt P01130)", "sequence (P01130 22-860 limits assumed)": "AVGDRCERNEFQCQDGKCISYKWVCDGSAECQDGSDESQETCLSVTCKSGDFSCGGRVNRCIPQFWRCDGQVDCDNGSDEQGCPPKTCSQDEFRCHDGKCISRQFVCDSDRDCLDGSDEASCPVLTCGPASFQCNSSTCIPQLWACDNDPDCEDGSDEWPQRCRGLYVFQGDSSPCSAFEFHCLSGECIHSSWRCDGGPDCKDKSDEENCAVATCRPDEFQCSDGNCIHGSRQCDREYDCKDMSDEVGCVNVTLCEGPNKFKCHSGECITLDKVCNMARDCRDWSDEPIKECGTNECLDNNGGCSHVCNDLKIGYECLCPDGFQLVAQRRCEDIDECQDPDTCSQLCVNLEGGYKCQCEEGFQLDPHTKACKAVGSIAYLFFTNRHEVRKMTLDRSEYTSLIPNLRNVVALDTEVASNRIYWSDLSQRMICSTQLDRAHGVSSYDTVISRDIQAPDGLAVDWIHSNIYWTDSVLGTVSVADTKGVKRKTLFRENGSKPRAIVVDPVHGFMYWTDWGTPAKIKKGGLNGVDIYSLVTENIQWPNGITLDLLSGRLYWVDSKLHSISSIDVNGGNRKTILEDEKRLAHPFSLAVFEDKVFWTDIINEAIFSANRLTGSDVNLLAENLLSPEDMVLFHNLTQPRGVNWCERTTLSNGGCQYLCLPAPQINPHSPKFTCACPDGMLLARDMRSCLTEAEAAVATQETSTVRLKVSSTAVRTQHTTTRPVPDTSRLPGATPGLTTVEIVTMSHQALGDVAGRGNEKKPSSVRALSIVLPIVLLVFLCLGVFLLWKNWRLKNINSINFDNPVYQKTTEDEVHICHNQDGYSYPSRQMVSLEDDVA", "assay": "cell-based or functional assay"}
{"substance": "distearyl-glycyl-apoE-3^129-169(Q142) (peptide)", "values": [{"measurement": "expression (transfection of 293 epithelial cells with peptide:DNA complexes), relative to wild-type apoE peptide complexes (% of wild-type apoE peptide complexes)", "value": 5}]}
